Measured values reported in US20190367578A1 (Novo Nordisk, published 2019).
Blank lines part the entries; values can stand above or below the binder they belong to. *1 amine or outer side, *2 acyl side, *3 side chain or, on linkers, in order; H or OH if unused. Where no end group is shown, it is not given here. Side-chain parts run from the residue outwards. [ ]: non-standard residue; d: D form. The star is where a group is joined. C20 diacid = O=C(O)CCCCCCCCCCCCCCCCCCC(=O)*; C18 diacid = O=C(O)CCCCCCCCCCCCCCCCC(=O)*; γGlu = O=C(O)[C@H](CCC(=O)[*:2])N[*:1]; Nle = CCCC[C@H](N)C(=O)O; AEEA = NCCOCCOCC(=O)O; Aib = CC(C)(N)C(=O)O

Target: T1, human GIP receptor (human) (UniProt P48546)
T1 sequence (looked up): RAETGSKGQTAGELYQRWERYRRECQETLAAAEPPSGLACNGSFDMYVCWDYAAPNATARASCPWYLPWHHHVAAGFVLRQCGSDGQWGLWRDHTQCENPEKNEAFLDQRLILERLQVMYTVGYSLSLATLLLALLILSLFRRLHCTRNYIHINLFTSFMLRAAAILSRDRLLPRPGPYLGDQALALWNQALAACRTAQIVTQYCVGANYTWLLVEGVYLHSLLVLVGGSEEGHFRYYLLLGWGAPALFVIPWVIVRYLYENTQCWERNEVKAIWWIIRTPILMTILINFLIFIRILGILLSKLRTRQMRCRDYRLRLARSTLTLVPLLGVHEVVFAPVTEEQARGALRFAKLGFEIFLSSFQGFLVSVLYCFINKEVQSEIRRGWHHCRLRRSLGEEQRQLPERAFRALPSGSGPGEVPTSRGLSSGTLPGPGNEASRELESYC
Assay: cell-based or functional assay

EC50 (pM), hGIP-R CRE Luc, 0.2% HSA: 72.5 pM
B1: N{Epsilon-24}-[(4S)-4-carboxy-4-[[(4S)-4-carboxy-4-[[(4S)-4-carboxy-4-(17-carboxyheptadecanoylamino)butanoyl]amino]butanoyl]amino]butanoyl]-[Aib2,Nle14,Ala16,Ar … (peptide)
peptide: Y[Aib]EGTFISDYSIA[Nle]DAIRQQDFVK([γGlu-γGlu-γGlu-C18 diacid])WLLAQKG

EC50 (pM), hGIP-R CRE Luc, 0.2% HSA: 810 pM
B2: N{Epsilon-24}-[(4S)-4-carboxy-4-[[(4S)-4-carboxy-4-[[(4S)-4-carboxy-4-[[(4S)-4-carboxy-4-[[4-[(19-carboxynonadecanoylamino)methyl]cyclohexanecarbonyl]amino]buta … (peptide)
peptide: Y[Aib]EGTFISDYSIA[Nle]DKIHQEDFVK([γGlu-γGlu-γGlu-γGlu-4‑(aminomethyl)cyclohexanecarbonyl-C20 diacid])WLLAQKG

EC50 (pM), hGIP-R CRE Luc, 0.2% HSA: 252 pM
B3: N{Epsilon-24}-[(4S)-4-carboxy-4-[[(4S)-4-carboxy-4-[[(4S)-4-carboxy-4-[[4-[(19-carboxynonadecanoylamino)methyl]cyclohexanecarbonyl]amino]butanoyl]amino]butanoyl … (peptide)
peptide: Y[Aib]EGTFISDYSIA[Nle]DKIRQEDFVK([γGlu-γGlu-γGlu-4‑(aminomethyl)cyclohexanecarbonyl-C20 diacid])WLLAQKG

EC50 (pM), hGIP-R CRE Luc, 0.2% HSA: 43.1 pM
B4: N{1}-acetyl,N{Epsilon-24}-[2-[2-[2-[[2-[2-[2-[[(4S)-4-carboxy-4-[[(4S)-4-carboxy-4-[[(4S)-4-carboxy-4-(17-carboxyheptadecanoylamino)butanoyl]amino]butanoyl]amin … (peptide)
peptide: Ac-[dY]AEGTFISDYSIA[Nle]DKIRQQDFVK([AEEA-AEEA-γGlu-γGlu-γGlu-C18 diacid])WLLAQKG

EC50 (pM), hGIP-R CRE Luc, 0.2% HSA: 30.4 pM
B5: N{1}-acetyl,N{Epsilon-24}-[2-[2-[2-[[2-[2-[2-[[(4S)-4-carboxy-4-(17-carboxyheptadecanoylamino)butanoyl]amino]ethoxy]ethoxy]acetyl]amino]ethoxy]ethoxy]acetyl]-[D … (peptide)
peptide: Ac-[dY]AEGTFISDYSIA[Nle]DKIRQQDFVK([AEEA-AEEA-γGlu-C18 diacid])WLLAQKG

EC50 (pM), hGIP-R CRE Luc, 0.2% HSA: 547 pM
B6: N{1}-acetyl,N{Epsilon-24}-[(4S)-4-carboxy-4-[[(4S)-4-carboxy-4-[[(4S)-4-carboxy-4-[[4-[(19-carboxynonadecanoylamino)methyl]cyclohexanecarbonyl]amino]butanoyl]am … (peptide)
peptide: Ac-[dY]AEGTFISDYSIA[Nle]DKIHQEDFVK([γGlu-γGlu-γGlu-4‑(aminomethyl)cyclohexanecarbonyl-C20 diacid])WLLAQKG

EC50 (pM), hGIP-R CRE Luc, 0.2% HSA: 9.4 pM
B7: N{Epsilon-24}-[(4S)-4-carboxy-4-[[(4S)-4-carboxy-4-[[(4S)-4-carboxy-4-(17-carboxyheptadecanoylamino)butanoyl]amino]butanoyl]amino]butanoyl]-[Aib2,Nle14,Arg18,Ai … (peptide)
peptide: Y[Aib]EGTFISDYSIA[Nle]DKIRQ[Aib]DFVK([γGlu-γGlu-γGlu-C18 diacid])WLLAQKG

EC50 (pM), hGIP-R CRE Luc, 0.2% HSA: 22 pM
B8: N{Epsilon-24}-[(4S)-4-carboxy-4-[[(4S)-4-carboxy-4-[[(4S)-4-carboxy-4-[[4-[(19-carboxynonadecanoylamino)methyl]cyclohexanecarbonyl]amino]butanoyl]amino]butanoyl … (peptide)
peptide: Y[Aib]EGTFISDYSIA[Nle]DKIRQQDFVK([γGlu-γGlu-γGlu-4‑(aminomethyl)cyclohexanecarbonyl-C20 diacid])WLLAQKGKEEDWKHNITQ

EC50 (pM), hGIP-R CRE Luc, 0.2% HSA: 25 pM
B9: N{1}-acetyl,N{Epsilon-24}-[2-[2-[2-[[2-[2-[2-[[(4S)-4-carboxy-4-(17-carboxyheptadecanoylamino)butanoyl]amino]ethoxy]ethoxy]acetyl]amino]ethoxy]ethoxy]acetyl]-[D … (peptide)
peptide: Ac-[dY]AEGTFISDYSIA[Nle]DKIRQEDFVK([AEEA-AEEA-γGlu-C18 diacid])WLLAQKG

EC50 (pM), hGIP-R CRE Luc, 0.2% HSA: 71.2 pM
B10: N{1}-acetyl,N{Epsilon-24}-[(4S)-4-carboxy-4-[[(4S)-4-carboxy-4-[[(4S)-4-carboxy-4-[[4-[(19-carboxynonadecanoylamino)methyl]cyclohexanecarbonyl]amino]butanoyl]am … (peptide)
peptide: Ac-[dY]AEGTFISDYSIA[Nle]DKIHQQDFVK([γGlu-γGlu-γGlu-4‑(aminomethyl)cyclohexanecarbonyl-C20 diacid])WLLAQKP-NH2

EC50 (pM), hGIP-R CRE Luc, 0.2% HSA: 62.9 pM
B11: N{Epsilon-24}-[(4S)-4-carboxy-4-[[(4S)-4-carboxy-4-[[(4S)-4-carboxy-4-(17-carboxyheptadecanoylamino)butanoyl]amino]butanoyl]amino]butanoyl]-[Aib2,Nle14,Arg18,Gl … (peptide)
peptide: Y[Aib]EGTFISDYSIA[Nle]DKIRQEDFVK([γGlu-γGlu-γGlu-C18 diacid])WLLAQKG

EC50 (pM), hGIP-R CRE Luc, 0.2% HSA: 71.2 pM
B12: N{Epsilon-24}-[(4S)-4-carboxy-4-[[(4S)-4-carboxy-4-[[(4S)-4-carboxy-4-[[4-[(19-carboxynonadecanoylamino)methyl]cyclohexanecarbonyl]amino]butanoyl]amino]butanoyl … (peptide)
peptide: Y[Aib]EGTFISDYSIA[Nle]DKIRQ[Aib]DFVK([γGlu-γGlu-γGlu-4‑(aminomethyl)cyclohexanecarbonyl-C20 diacid])WLLAQKG

EC50 (pM), hGIP-R CRE Luc, 0.2% HSA: 67.5 pM
B13: N{Epsilon-24}-[(4S)-4-carboxy-4-[[(4S)-4-carboxy-4-[[(4S)-4-carboxy-4-[[4-[(19-carboxynonadecanoylamino)methyl]cyclohexanecarbonyl]amino]butanoyl]amino]butanoyl … (peptide)
peptide: Y[Aib]EGTFISDYSIA[Nle]DKIHQQDFVK([γGlu-γGlu-γGlu-4‑(aminomethyl)cyclohexanecarbonyl-C20 diacid])WLLAQKP-NH2

EC50 (pM), hGIP-R CRE Luc, 0.2% HSA: 48.9 pM
B14: N{1}-acetyl,N{Epsilon-24}-[(4S)-4-carboxy-4-[[(4S)-4-carboxy-4-[[(4S)-4-carboxy-4-(17-carboxyheptadecanoylamino)butanoyl]amino]butanoyl]amino]butanoyl]-[D-Tyr1, … (peptide)
peptide: Ac-[dY]AEGTFISDYSIA[Nle]DKIRQQDFVK([γGlu-γGlu-γGlu-C18 diacid])WLLAQKG

EC50 (pM), hGIP-R CRE Luc, 0.2% HSA: 153 pM
B15: N{1}-acetyl,N{Epsilon-24}-[(4S)-4-carboxy-4-[[(4S)-4-carboxy-4-[[(4S)-4-carboxy-4-[[4-[(19-carboxynonadecanoylamino)methyl]cyclohexanecarbonyl]amino]butanoyl]am … (peptide)
peptide: Ac-[dY]AEGTFISDYSIA[Nle]DKIHQ[Aib]DFVK([γGlu-γGlu-γGlu-4‑(aminomethyl)cyclohexanecarbonyl-C20 diacid])WLLAQKG

EC50 (pM), hGIP-R CRE Luc, 0.2% HSA: 546 pM
B16: N{1}-acetyl,N{Epsilon-24}-[(4S)-4-carboxy-4-[[(4S)-4-carboxy-4-[[(4S)-4-carboxy-4-(17-carboxyheptadecanoylamino)butanoyl]amino]butanoyl]amino]butanoyl]-[Nle14,A … (peptide)
peptide: Ac-YAEGTFISDYSIA[Nle]DKIRQQDFVK([γGlu-γGlu-γGlu-C18 diacid])WLLAQKG
